# In patent US20250262167A1, “COMPOUNDS, TARGETS AND PATHWAYS FOR MACROPHAGE MODULATION” (Massachusetts Institute of Technology, priority 2020, published 2025):
# B1: EGF: ligand of novel pathway (protein, UniProt P01133 23-1207, looked up)
# Pro-epidermal growth factor: PQHWSCPEGTLAGNGNSTCVGPAPFLIFSHGNSIFRIDTEGTNYEQLVVDAGVSVIMDFHYNEKRIYWVDLERQLLQRVFLNGSRQERVCNIEKNVSGMAINWINEEVIWSNQQEGIITVTDMKGNNSHILLSALKYPANVAVDPVERFIFWSSEVAGSLYRADLDGVGVKALLETSEKITAVSLDVLDKRLFWIQYNREGSNSLICSCDYDGGSVHISKHPTQHNLFAMSLFGDRIFYSTWKMKTIWIANKHTGKDMVRINLHSSFVPLGELKVVHPLAQPKAEDDTWEPEQKLCKLRKGNCSSTVCGQDLQSHLCMCAEGYALSRDRKYCEDVNECAFWNHGCTLGCKNTPGSYYCTCPVGFVLLPDGKRCHQLVSCPRNVSECSHDCVLTSEGPLCFCPEGSVLERDGKTCSGCSSPDNGGCSQLCVPLSPVSWECDCFPGYDLQLDEKSCAASGPQPFLLFANSQDIRHMHFDGTDYGTLLSQQMGMVYALDHDPVENKIYFAHTALKWIERANMDGSQRERLIEEGVDVPEGLAVDWIGRRFYWTDRGKSLIGRSDLNGKRSKIITKENISQPRGIAVHPMAKRLFWTDTGINPRIESSSLQGLGRLVIASSDLIWPSGITIDFLTDKLYWCDAKQSVIEMANLDGSKRRRLTQNDVGHPFAVAVFEDYVWFSDWAMPSVMRVNKRTGKDRVRLQGSMLKPSSLVVVHPLAKPGADPCLYQNGGCEHICKKRLGTAWCSCREGFMKASDGKTCLALDGHQLLAGGEVDLKNQVTPLDILSKTRVSEDNITESQHMLVAEIMVSDQDDCAPVGCSMYARCISEGEDATCQCLKGFAGDGKLCSDIDECEMGVPVCPPASSKCINTEGGYVCRCSEGYQGDGIHCLDIDECQLGEHSCGENASCTNTEGGYTCMCAGRLSEPGLICPDSTPPPHLREDDHHYSVRNSDSECPLSHDGYCLHDGVCMYIEALDKYACNCVVGYIGERCQYRDLKWWELRHAGHGQQQKVIVVAVCVVVLVMLLLLSLWGAHYYRTQKLLSKNPKNPYEESSRDVRSRRPADTEDGMSSCPQPWFVVIKEHQDLKNGGQPVAGEDGQAADGSMQPTSWRQEPQLCGMGTEQGCWIPVSSDKGSCPQVMERSFHMPSYGTQTLEGGVEKPHSLLSANPLWQQRALDPPHQMELTQ
# modifications: Pro-epidermal growth factor
# notes: ligand of novel pathway
# B2: IL-4: classic M2 stimulus (protein, UniProt P05112 25-153, looked up)
# Interleukin-4: HKCDITLQEIIKTLNSLTEQKTLCTELTVTDIFAASKNTTEKETFCRAATVLRQFYSHHEKDTRCLGATAQQFHRHKQLIRFLKRLDRNLWGLAGLNSCPVKEANQSTLENFLERLKTIMREKYSKCSS
# B3: IL10: classic M2 stimulus (protein, UniProt P22301 19-178, looked up)
# Interleukin-10: SPGQGTQSENSCTHFPGNLPNMLRDLRDAFSRVKTFFQMKDQLDNLLLKESLLEDFKGYLGCQALSEMIQFYLEEVMPQAENQDPDIKAHVNSLGENLKTLRLRLRRCHRFLPCENKSKAVEQVKNAFNKLQEKGIYKAMSEFDIFINYIEAYMTMKIRN
# Key:
# hMDMs [1] = assay: RNA-seq transcriptional response of hMDMs (GSEA, GO enrichment); format: cell-based, human; conditions: hMDMs, 24 hrs, GSEA
# Method: Duplicate hMDM samples were treated with 2 M2-activating and 6 M1-activating compounds as well as IL-4 and IFNγ for 24 hrs. Gene expression levels were measured by RNA-seq separately. GSEA preranked analysis was performed based on the whole genome gene list ranked on gene expression changes using a gene set of 49 transcriptional modules in response to 29 stimuli in hMDMs. bosut.: bosutinib; alster.: alsterpaullone; mocet.: mocetinostat; thios.: thiostrepton; niclo.: niclosamide; chlor.: chlorhexidine; fenb.: fenbendazole; fluvo.: fluvoxamine. […] Duplicate hMDM samples were stimulated with each ligand and analyzed by RNA-seq separately.
# DEGs were identified by edgeR at P<0.05 with at least 2 fold-change.
# RNAs were extracted with RNeasy MiniElute kit (Qiagen), converted into cDNA and sequenced using Next-Generation Sequencing (Illumina). […] Differential expression analysis was performed using the program edgeR at P<0.05 with a 2 fold-change. The gene expression level across different samples was normalized and quantified using the function of cpm. Differentially expressed genes were annotated using online functional enrichment analysis tool DAVID (http://david.ncifcrf.gov/). Gene set enrichment analysis were performed with GSEA with FDR q-value<0.05.
# Fresh hMDMs were treated with compounds at the EC for 24 hours, followed by RNA-seq.
# [2] = system: human monocyte-derived macrophages (hMDMs); assay: High throughput phenotypic screen of macrophage activation (cell shape, Z-score); format: cell-based; conditions: known M1-/M2-activating stimuli;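 further: phalloidin and DAPI stained hMDMs imaged by high-content microscopy, cell eccentricity compared with DMSO control by T-test, round morphology scored negative, elongated positive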
# hMDMs [3] = assay: Flow cytometry of M1 markers (CD80, CD86) and M2 markers (CD206, CD163) in hMDMs; format: cell-based, human; conditions: 24 hrs
# Method: FIGS. 7A-7B show morphology and phenotypes of activated macrophages. […] The resulting macrophages were polarized to M1 by IFNγ or M2 by IL4. Then, M1 macrophages were treated with M2-type compound bosutinib ([…]) for 24 hrs, and M2 macrophages were treated with M1-type compound thiostrepton ([…]) for 24 hrs. F-actin was stained and images were acquired by fluorescent microscopy with 60× objective. Cell nuclei are stained with DAPI. Representative data were shown from two independent experiments. […] Shown are the representative staining profiles from three independent experiments. The numbers show mean fluorescent intensity (MFI)+/−standard error of the mean (SEM) for n=3 samples per group.
# FIGS. 9A-9C show comparison of the differentially expressed genes induced by selected compounds (FIG. 9A), ligands for novel pathways (FIG. 9B), and controls (IL-4 and IFNγ). […] Shown are the changes of the relative mean fluorescence intensity (MFI) to controls. 0.2 refers to 20% MFI increase.
# B6 mice were purchased from the Jackson Laboratory and maintained in the animal facility at the Massachusetts Institute of Technology (MIT). NSG mice were purchased from the Jackson Laboratory and maintained under specific pathogen-free conditions in the animal facilities at MIT. […] The data were analyzed by FlowJo. […]
Molecule,"gene expression of TPP modules (#30, #32) (hMDMs [1])","gene expression of typical M1 modules (#7, #8) (hMDMs [1])",cell shape induced [2],expression of M1 markers CD80 and CD86 (hMDMs [3]),expression of M2 markers CD206 and CD163 (hMDMs [3])
B1,down-regulated,up-regulated,–,–,–
B2,–,–,elongated cell shape,suppressed,up-regulated
B3,–,–,elongated cell shape,–,–
